From patent publication US20130059793A1 (University of Texas, published 2013)
Ends that are not written are not given here.

Columns and labels:
[1] = biological target: T1, bovine serum albumin (BSA) (bovine, UniProt P02769 25-607); test: phage binding assay on immobilized proteins
T1 construct: Negative control protein

VEGF = biological target: T2, VEGF (UniProt P15692-4 27-191, limits assumed); test: phage binding assay on proteins coated onto microtiter wells
T2 construct: Negative control protein; also called negative control protein VEGF

[2] = biological target: T3, transforming growth factor alpha (TGF-α) (UniProt P01135 40-89); test: as above
T3 construct: Bought; also called Tumor Growth Factor alpha

[3] = biological target: T4, epidermal growth factor (EGF) (UniProt P01133 971-1023); test: as above
T4 construct: Bought
T4 sequence (P01133 971-1023 limits assumed): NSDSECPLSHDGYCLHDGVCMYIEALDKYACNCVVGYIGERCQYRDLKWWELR

T1 sequence (P02769 25-607 limits assumed): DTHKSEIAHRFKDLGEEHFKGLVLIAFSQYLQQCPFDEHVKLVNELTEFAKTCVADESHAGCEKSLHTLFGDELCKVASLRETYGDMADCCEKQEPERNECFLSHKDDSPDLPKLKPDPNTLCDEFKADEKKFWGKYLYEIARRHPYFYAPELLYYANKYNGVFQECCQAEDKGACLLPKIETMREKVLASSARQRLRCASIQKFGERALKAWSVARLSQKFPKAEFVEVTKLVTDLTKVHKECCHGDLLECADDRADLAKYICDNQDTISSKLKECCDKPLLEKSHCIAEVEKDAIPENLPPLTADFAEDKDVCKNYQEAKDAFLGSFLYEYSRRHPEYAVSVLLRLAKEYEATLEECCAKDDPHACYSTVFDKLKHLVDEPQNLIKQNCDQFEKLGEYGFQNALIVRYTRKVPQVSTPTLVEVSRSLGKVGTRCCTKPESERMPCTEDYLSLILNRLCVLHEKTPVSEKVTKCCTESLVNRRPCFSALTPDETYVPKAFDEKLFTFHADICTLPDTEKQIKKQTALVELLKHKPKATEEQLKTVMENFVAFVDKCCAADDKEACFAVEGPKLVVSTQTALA
T2 sequence (P15692 other isoform, or with tags, fused parts or gaps limits assumed): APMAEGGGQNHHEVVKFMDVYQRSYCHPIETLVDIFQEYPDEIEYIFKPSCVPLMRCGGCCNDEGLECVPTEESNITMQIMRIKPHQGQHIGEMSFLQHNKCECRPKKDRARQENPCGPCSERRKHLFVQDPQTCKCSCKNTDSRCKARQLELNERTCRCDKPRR

Row | Binder | binding result [1] | binding result (VEGF) | binding result [2] | binding result [3]
1 | CVRAC (not fully specified (bridges); also: cyclic, ring type not given here, displayed on phage, the phage coat protein that carries the insert is not described; also called CVRAC-phage; phage displaying the cyclic peptide CVRAC) [CVRAC-displaying phage] | no binding | no binding |  | 
2 | CVAAC (not fully specified (bridges); also: cyclic, ring type not given here, displayed on phage, coat protein fusion not described; also called CVAAC-phage; alanine scanning control) [CVAAC-displaying phage] |  |  | no binding | no binding
